Test results reported in US11325966.

How the values were obtained:
Assay in all cases: cell-based or functional assay
[1] = target: BG505 (T332N) N339A (HIV-1)
[2] = target: HIV-1 Env of pseudovirus ZM135M.PE10a (HIV-1)
JR-CSF N362A (HIV-1) = JR-CSF N362A (HIV-1) (UniProt P20871)
[3] = target: HIV-1 Env of pseudovirus 7030102001E5 (Rev-) (HIV-1)
[4] = target: HIV-1 envelope (Env) of pseudovirus 1006_11_C3_1601 (HIV-1)
[5] = target: HIV-1 envelope (Env) of pseudovirus 1012_11_TC21_3257 (HIV-1)
[6] = target: HIV-1 envelope (Env) of pseudovirus 1054_07_TC4_1499 (HIV-1)
[7] = target: HIV-1 envelope (Env) of pseudovirus 1056_10_TA11_1826 (HIV-1)
[8] = target: HIV-1 envelope (Env) of pseudovirus 6041.v3.c23 (HIV-1)
[9] = target: HIV-1 envelope (Env) of pseudovirus 620345.c01 (HIV-1)
[10] = target: HIV-1 envelope (Env) of pseudovirus 6244_13_B5_4576 (HIV-1)
[11] = target: HIV-1 envelope (Env) of pseudovirus BG505/T332N (HIV-1)
[12] = target: HIV-1 envelope (Env) of pseudovirus BJOX009000.02.4 (HIV-1)
[13] = target: HIV-1 envelope (Env) of pseudovirus BJOX010000.06.2 (HIV-1)
[14] = target: HIV-1 envelope (Env) of pseudovirus BJOX028000.10.3 (HIV-1)
[15] = target: HIV-1 envelope (Env) of pseudovirus C1080.c03 (HIV-1)
[16] = target: HIV-1 envelope (Env) of pseudovirus C3347.c11 (HIV-1)
[17] = target: HIV-1 envelope (Env) of pseudovirus C4118.c09 (HIV-1)
[18] = target: HIV-1 envelope (Env) of pseudovirus CNE53 (HIV-1)
[19] = target: HIV-1 envelope (Env) of pseudovirus CNE8 (HIV-1)
[20] = target: HIV-1 envelope (Env) of pseudovirus Ce0682_E4 (HIV-1)
[21] = target: HIV-1 envelope (Env) of pseudovirus Du156.12 (HIV-1)
[22] = target: HIV-1 envelope (Env) of pseudovirus HIV-16845-2.22 (HIV-1)
[23] = target: HIV-1 envelope (Env) of pseudovirus Q23.17 (HIV-1)
[24] = target: HIV-1 envelope (Env) of pseudovirus Q259.d2.17 (HIV-1)
[25] = target: HIV-1 envelope (Env) of pseudovirus R1166.c01 (HIV-1)
[26] = target: HIV-1 envelope (Env) of pseudovirus T251-18 (HIV-1)
[27] = target: HIV-1 envelope (Env) of pseudovirus T257-31 (HIV-1)
[28] = target: HIV-1 envelope (Env) of pseudovirus T278-50 (HIV-1)
[29] = target: HIV-1 envelope (Env) of pseudovirus THRO4156.18 (HIV-1)
[30] = target: HIV-1 envelope (Env) of pseudovirus WEAU_d15_410_787 (HIV-1)
[31] = target: HIV-1 envelope (Env) of pseudovirus WITO4160.33 (HIV-1)
[32] = target: HIV-1 envelope (Env) of pseudovirus X1193_c1 (HIV-1)
[33] = target: HIV-1 envelope (Env) of pseudovirus X2088_c9 (HIV-1)
[34] = target: HIV-1 envelope (Env) of pseudovirus YU2_N280Y (HIV-1) (UniProt P35961)
[35] = target: HIV-1 envelope (Env) of pseudovirus YU2_WT (HIV-1) (UniProt P35961)
[36] = target: HIV-1 envelope (Env) of pseudovirus ZM109F.PB4 (HIV-1)
[37] = target: HIV-1 envelope (Env) of pseudovirus ZM249M.PL1 (HIV-1)

354BG8 (antibody)
IC50 in TZM-bl assay [1]: 0.007 µg/mL
IC50 in TZM-bl assay [2]: 0.061 µg/mL
IC80 in TZM-bl assay [2]: 0.263 µg/mL
IC50 in TZM-bl assay (JR-CSF N362A (HIV-1)): 0.008 µg/mL

BG18 IgG (354BG18) (antibody)
IC50 in TZM-bl assay [3]: 0.002 µg/mL
IC80 in TZM-bl assay [3]: 0.008 µg/mL

BG1 (antibody)
IC50 in TZM-bl assay [4]: > 30 µg/mL
IC80 in TZM-bl assay [4]: > 30 µg/mL
IC50 in TZM-bl assay [5]: > 30 µg/mL
IC80 in TZM-bl assay [5]: > 30 µg/mL
IC50 in TZM-bl assay [6]: > 30 µg/mL
IC80 in TZM-bl assay [6]: > 30 µg/mL
IC50 in TZM-bl assay [7]: 5.43 µg/mL
IC80 in TZM-bl assay [7]: 29.9 µg/mL
IC50 in TZM-bl assay [8]: 6.75 µg/mL
IC80 in TZM-bl assay [8]: 16.6 µg/mL
IC50 in TZM-bl assay [9]: 0.626 µg/mL
IC80 in TZM-bl assay [9]: 4.23 µg/mL
IC50 in TZM-bl assay [10]: > 30 µg/mL
IC80 in TZM-bl assay [10]: > 30 µg/mL
IC50 in TZM-bl assay [11]: 0.034 µg/mL
IC80 in TZM-bl assay [11]: 0.125 µg/mL
IC50 in TZM-bl assay [12]: > 30 µg/mL
IC80 in TZM-bl assay [12]: > 30 µg/mL
IC50 in TZM-bl assay [13]: > 30 µg/mL
IC80 in TZM-bl assay [13]: > 30 µg/mL
IC50 in TZM-bl assay [14]: > 30 µg/mL
IC80 in TZM-bl assay [14]: > 30 µg/mL
IC50 in TZM-bl assay [15]: 0.002 µg/mL
IC80 in TZM-bl assay [15]: 0.005 µg/mL
IC50 in TZM-bl assay [16]: > 30 µg/mL
IC80 in TZM-bl assay [16]: > 30 µg/mL
IC50 in TZM-bl assay [17]: 22.8 µg/mL
IC80 in TZM-bl assay [17]: > 30 µg/mL
IC50 in TZM-bl assay [18]: 1.32 µg/mL
IC80 in TZM-bl assay [18]: 7.47 µg/mL
IC50 in TZM-bl assay [19]: > 30 µg/mL
IC80 in TZM-bl assay [19]: > 30 µg/mL
IC50 in TZM-bl assay [20]: > 30 µg/mL
IC80 in TZM-bl assay [20]: > 30 µg/mL
IC50 in TZM-bl assay [21]: 1.52 µg/mL
IC80 in TZM-bl assay [21]: 6.03 µg/mL
IC50 in TZM-bl assay [22]: > 30 µg/mL
IC80 in TZM-bl assay [22]: > 30 µg/mL
IC50 in TZM-bl assay [23]: 0.008 µg/mL
IC80 in TZM-bl assay [23]: 0.016 µg/mL
IC50 in TZM-bl assay [24]: > 30 µg/mL
IC80 in TZM-bl assay [24]: > 30 µg/mL
IC50 in TZM-bl assay [25]: > 30 µg/mL
IC80 in TZM-bl assay [25]: > 30 µg/mL
IC50 in TZM-bl assay [26]: 3.59 µg/mL
IC80 in TZM-bl assay [26]: 18 µg/mL
IC50 in TZM-bl assay [27]: > 30 µg/mL
IC80 in TZM-bl assay [27]: > 30 µg/mL
IC50 in TZM-bl assay [28]: 19.3 µg/mL
IC80 in TZM-bl assay [28]: > 30 µg/mL
IC50 in TZM-bl assay [29]: > 30 µg/mL
IC80 in TZM-bl assay [29]: > 30 µg/mL
IC50 in TZM-bl assay [30]: > 30 µg/mL
IC80 in TZM-bl assay [30]: > 30 µg/mL
IC50 in TZM-bl assay [31]: 0.002 µg/mL
IC80 in TZM-bl assay [31]: 0.014 µg/mL
IC50 in TZM-bl assay [32]: 0.138 µg/mL
IC80 in TZM-bl assay [32]: 0.463 µg/mL
IC50 in TZM-bl assay [33]: > 30 µg/mL
IC80 in TZM-bl assay [33]: > 30 µg/mL
IC50 in TZM-bl assay [34]: 9 µg/mL
IC80 in TZM-bl assay [34]: 23 µg/mL
IC50 in TZM-bl assay [35]: 15.8 µg/mL
IC80 in TZM-bl assay [35]: > 30 µg/mL
IC50 in TZM-bl assay [36]: > 30 µg/mL
IC80 in TZM-bl assay [36]: > 30 µg/mL
IC50 in TZM-bl assay [37]: 1.22 µg/mL
IC80 in TZM-bl assay [37]: 6.79 µg/mL
